From patent US20250312444A1 (BEIJING TUO JIE BIOPHARMACEUTICAL, published 2025) come the findings set out here.

For assay [1], the target named is T1, human RXFP1 receptor (human, UniProt Q9HBX9 1-757).
T1 sequence (looked up): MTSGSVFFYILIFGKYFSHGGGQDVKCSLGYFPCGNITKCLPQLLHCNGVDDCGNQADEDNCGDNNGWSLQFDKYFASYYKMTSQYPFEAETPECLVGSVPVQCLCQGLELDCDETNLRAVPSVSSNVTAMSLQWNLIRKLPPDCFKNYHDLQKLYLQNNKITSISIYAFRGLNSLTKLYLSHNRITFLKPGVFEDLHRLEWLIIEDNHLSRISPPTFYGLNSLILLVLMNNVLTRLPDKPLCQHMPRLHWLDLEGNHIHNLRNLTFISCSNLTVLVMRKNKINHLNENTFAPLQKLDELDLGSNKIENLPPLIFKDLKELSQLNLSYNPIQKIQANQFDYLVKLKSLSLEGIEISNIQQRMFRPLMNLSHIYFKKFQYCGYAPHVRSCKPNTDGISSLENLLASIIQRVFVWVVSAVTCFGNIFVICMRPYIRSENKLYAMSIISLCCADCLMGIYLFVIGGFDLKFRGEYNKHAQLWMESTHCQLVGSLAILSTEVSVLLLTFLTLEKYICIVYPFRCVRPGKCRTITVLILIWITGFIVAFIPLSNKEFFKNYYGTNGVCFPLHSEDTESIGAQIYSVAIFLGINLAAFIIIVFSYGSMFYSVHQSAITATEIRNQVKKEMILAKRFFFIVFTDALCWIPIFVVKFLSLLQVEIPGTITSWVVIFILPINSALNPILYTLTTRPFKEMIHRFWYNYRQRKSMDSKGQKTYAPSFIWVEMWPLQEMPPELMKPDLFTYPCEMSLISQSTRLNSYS
Nature of the assay: cell-based or functional assay.

For assay [2], the target named is T2, mouse RXFP1 receptor (mouse, UniProt Q6R6I7 1-758).
T2 sequence (looked up): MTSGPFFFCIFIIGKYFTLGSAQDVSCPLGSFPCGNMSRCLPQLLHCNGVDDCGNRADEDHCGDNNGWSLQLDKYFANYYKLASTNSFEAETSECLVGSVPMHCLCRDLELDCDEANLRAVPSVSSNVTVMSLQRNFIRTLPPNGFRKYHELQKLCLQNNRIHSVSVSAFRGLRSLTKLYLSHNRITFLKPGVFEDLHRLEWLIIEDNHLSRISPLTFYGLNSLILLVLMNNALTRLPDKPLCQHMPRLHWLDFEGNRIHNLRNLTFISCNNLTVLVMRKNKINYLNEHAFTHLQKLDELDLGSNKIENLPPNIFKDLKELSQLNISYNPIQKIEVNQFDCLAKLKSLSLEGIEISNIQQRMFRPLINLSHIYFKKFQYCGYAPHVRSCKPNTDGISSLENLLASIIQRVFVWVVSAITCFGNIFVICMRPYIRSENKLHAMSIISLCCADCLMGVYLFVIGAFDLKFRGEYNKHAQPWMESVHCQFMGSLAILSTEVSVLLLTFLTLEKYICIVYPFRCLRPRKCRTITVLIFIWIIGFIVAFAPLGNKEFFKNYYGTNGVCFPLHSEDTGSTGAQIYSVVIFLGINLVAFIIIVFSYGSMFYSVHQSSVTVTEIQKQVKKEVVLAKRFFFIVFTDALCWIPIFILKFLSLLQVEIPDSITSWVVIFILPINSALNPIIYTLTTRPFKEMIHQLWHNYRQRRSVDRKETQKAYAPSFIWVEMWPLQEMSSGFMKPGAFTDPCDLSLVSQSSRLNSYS
Nature of the assay: cell-based or functional assay.

Assay [3] has as its target human RXFP2 receptor (human, UniProt Q8WXD0 1-754). In words: cell-based or functional assay.
The target in assay [4] is dog RXFP1 receptor (dog). Nature of the assay: cell-based or functional assay.
In assay [5] the target is human serum albumin (HSA) (human). Nature of the assay: SPR Biacore T200, albumin amine-coupled, fusion protein as analyte. As to the method: (§1) Coupling of serum albumins from different species to an S series CM5 sensor chip (GE, Cat. 29-1049-88) was performed using an amino coupling kit (GE, Cat No. BR-1000-50). The albumin from each species was diluted to 2 μg/mL. After the CM5 chip was activated with EDC/NHS, the diluted albumin was flowed over the chip to reach a surface response value of about 200 (180 to 230) RU, and then the chip was blocked with ethanolamine. The blank control channel also needed to be activated with EDC/NHS and blocked with ethanolamine. […] The samples of 0051 and 0054 at different concentrations were separately flowed through the albumin-coupled and blank channels for 3 min at a flow rate of 50 μL/min, with a dissociation time of 4 min. After the end of each cycle, the chip was regenerated using 10 mM glycine-hydrochloric acid (pH 1.5) (GE, Cat. #BR-1003-54). The reaction signals were detected in real-time using Biacore T200 (GE) to obtain the association and dissociation curves, and the data obtained were fitted with a Langmuir 1:1 binding model using the BIAevaluation version 4.1 software at appropriate concentration points to obtain the affinity values.

Assay [6] deals with mouse serum albumin (mSA) (mouse). The description is as above. As to the method:
as §1

Assay [7] addresses T3, rat serum albumin (rat).
T3 chain: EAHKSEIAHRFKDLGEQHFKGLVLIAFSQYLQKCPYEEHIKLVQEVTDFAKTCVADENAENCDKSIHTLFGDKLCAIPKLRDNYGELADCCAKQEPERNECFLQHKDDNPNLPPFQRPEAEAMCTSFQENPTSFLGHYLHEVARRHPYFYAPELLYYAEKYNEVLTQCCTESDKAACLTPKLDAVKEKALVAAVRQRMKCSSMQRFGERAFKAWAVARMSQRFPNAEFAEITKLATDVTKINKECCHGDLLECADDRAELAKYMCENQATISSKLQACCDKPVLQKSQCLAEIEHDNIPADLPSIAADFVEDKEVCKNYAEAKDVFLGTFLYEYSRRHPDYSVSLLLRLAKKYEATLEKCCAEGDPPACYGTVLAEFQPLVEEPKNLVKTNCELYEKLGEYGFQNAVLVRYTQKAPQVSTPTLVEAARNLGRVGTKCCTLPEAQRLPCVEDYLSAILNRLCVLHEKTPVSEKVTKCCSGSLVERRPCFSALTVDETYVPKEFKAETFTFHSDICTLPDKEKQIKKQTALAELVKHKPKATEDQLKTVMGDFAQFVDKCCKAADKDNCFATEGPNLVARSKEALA
The description is as above. How it is done: as §1

The term Kd denotes the free concentration of one partner at which half of the binding sites on the other are occupied at equilibrium, for simple one-to-one binding. The term koff denotes a measure of how fast the partners let go of each other. High values mean fast dissociation, low ones slow dissociation. The kon is the rate constant with which the complex forms. Low values mean slow association, high ones fast association.

B1: 0051 (other)
chain: EVQLLESGGGLVQPGGSLRLSCAASGFTFLTSCMGWFRQAPGKEREGVSSIYTVGGSTFYTNSVKGRFTISRDNSKNTLYLQMNSLRAEDTAVYYCAAGSPARCRLRDPTTFDYWGQGTLVTVSSGGGGQGGGGQGGGGQGGGGQGGGGQSWMEEVIKLCGRELVRAQIAICGMSTWSGGGSGGSGGGQLYSALANKCCHVGCTKRSLARFC
notes: Single-chain fusion: anti-HSA VHH, linker, relaxin-2 B chain, linker, relaxin-2 A chain; also called fusion protein 0051; molecule 0051
B1: the “EC50 (nM), cAMP production in CHO-K1 cells with receptor overexpression” value in assay [1] was 28.3 nM; in assay [2], 21.7 nM; in assay [3] it was 1250 nM; in assay [4] it was 2210 nM. Moreover, the Kd is 0.0422 nM in assay [5], 37.9 nM in assay [6] and 1.95 nM in assay [7]. Moreover, the koff in assay [5] came to 0.000207 s⁻¹; in assay [6], 0.0471 s⁻¹; in assay [7], 0.00439 s⁻¹. The results for the kon in assay [5], in assay [6] and in assay [7] were 4.91e+06 M⁻¹ s⁻¹, 1.24e+06 M⁻¹ s⁻¹ and 2.25e+06 M⁻¹ s⁻¹, respectively.
